Measurements: paper doi:10.1101/2024.04.23.590744 (bioRxiv, 2024)
Changes are numbered by the printed parent chain. Numbers in names are those of the source. Like-named read-outs stand apart in the source and are kept apart here.

B1: human LETM1 F-EF-hand domain, residues 643-699, wild type (domain or fragment, UniProt O95202-1 643-699, looked up)
chain: TGENVISVAELINAMKQVKHIPESKLTSLAAALDENKDGKVNIDDLVKVIELVDKED
B2: human LETM1 F-EF-hand domain, residues 643-699, D687E (domain or fragment, UniProt O95202-1 643-699, looked up)
chain: B1 chain with D45E
B3: human LETM1 F-EF-hand domain, residues 643-699, D676A/N678A (domain or fragment, UniProt O95202-1 643-699, looked up)
chain: B1 chain with D34A, N36A
B4: human LETM1 F-EF-hand domain, residues 643-699, D686A/D687A (domain or fragment, UniProt O95202-1 643-699, looked up)
chain: B1 chain with D44A, D45A

Tests used:
Assay in all cases: SEC-MALS
[1] = molecular target: human LETM1 F-EF-hand domain, residues 643-699, D676K/N678K (human) (UniProt O95202)
[2] = molecular target: human LETM1 F-EF-hand domain, residues 643-699, D676K/N678K (human) (UniProt O95202); remark: listed apart in the source
SEC-MALS [3] = molecular target: the molecule itself
SEC-MALS [4] = molecular target: the molecule itself; remark: listed apart in the source

Molecule	stoichiometry N (SEC-MALS [3])	stoichiometry N (SEC-MALS [4])	other results
human LETM1 F-EF-hand domain, residues 643-699, D676K/N678K (from UniProt O95202-1 643-699) (domain or fragment)	–	–	stoichiometry N [1]: 2; stoichiometry N [2]: 2
B1	~2	–	–
B2	2	–	–
B3	–	2	–
B4	–	2	–
